According to the DeepSol protein solubility set:

Assay: soluble on expression in E. coli; label from the status in PepcDB or PDB records

Sequence	soluble on expression in E. coli
LDRHLQPLLLELATLTRAENSGVAPKVSDERKELDRLLAEQEGNRRALTAANVAVDDMELEIRRVQEDERKLRRREAEGKRQLAAEVDEEKRRDIKHDIYAAKSRIADLMSELQEAHNEIHALRNNRDLNQQRVSDTEARIDKARAAVDALGEDTTAADRHERIETLRLELPSDVVAQFDEQRDENEVGVASFNNRSCGGCFIILPPADISIIRRAPMNVLPQCPDCGSYLVRQG	not soluble
LEAVAPERPRCAYCSAEASKRCSRCQNEWYCCRECQVKHWEKHGKTCVLAAQGDRAK	soluble
LEQLSMNLLDGALRIEHFALPQTKVAYLHLSQINFEQILALLKYQQIELKGRANATFPFWIEGKPCYVCNGSMAQAVSSRLKIAPELMQAISQSNGYSERLLAYLLHDTRITDLTSKVNINSEGEMALQAKLNMQLNQQAQTKINFNYHHQENVFKLWRTLNAGTYVEQNFENSIYQKLDRTNE	not soluble
LEQYVVVSNYKKQENSELSLQAGEVVDVIEKNESGWWFVSTSEEQGWVPATYLEAQN	soluble
LFTPDKQRITESVAFKDLSSPELEQYIGDTQAEKLRADIELIDGVYQPFDKEEYLAGQLAPVFFGSALNNFGVQELLNCFVEIAPSPQPVAAVERKVDPHEEEFTGFVFKIHANMDPNHRSCIAFVKICSGRFERNTNYKHIRLGKQFRFSSPTAFMAQRKETVDEAYAGDIIGLPDTGNFQIGDTLTAGEELHFRGLPSFSPELFKYIENQDPMKAKQLAKGIDQLMGEGVAQLFTNQFNGRKIIGTVGQLQFEVIQYRLLHEYGAQCRWEPISLYKACWIDSDKPEALEAFKKRKAQYMAKDIAGRDVYLADSGYVLNMAQQDFPDIRFHFTSEF	not soluble
LGQTTERYKSVIESMIEGIIIIDLEGKIIDHNKAATQIIGYEDLVLIGNDFSLGPGEAIREDETKFPFEEFPGIKTLRTGMPYKNVILGWIIPGKDTIWLSINSEPVKNENGEQVAVVCSYSDVT	not soluble
LHPDKCRAPHATEAFKALGNAYAVLSDTDKRRQYDQYGAEAANSHTPTTRRRGGGHGAFFEHDYAHGFEAEFTPEEIFNMFFGGGFPTEQVRRRARYAQQQQYHHYEQQQSPYGPLLQLLPLIAIMVIGLLAQLMVGEPAYSLHQTSKFTIKRLTADLRVPYFVRTDFETSYRGRIRQVEQQVEDDYIQNLRMNCYKEQNLKETKLYRARWMRDEAMMRDAERTPLPSCIRLNEIYSH	not soluble
LIIFVFGYYLAFNQNKYVSYNDETKQFVHTDTSKIMENLVNRQQGIYYFGFPTCPWCLELLPILDKELEKESMNAYAVNTRGDDYTENDDELLQKFYQKYTGDESLSVPFIVAINNKKEVQVHIGTVKNHDATKTKLKRRQKE	not soluble
LKIKMPDDIFVKKELILKDVIKGQIGYMYLPSMSSKNGSINNDLKIIGDYINTLEKHKALIIDIRGNLGGSDRYWQGIVSKLIKNDVKINGYRIYRNNNEIVKKYTNARNIKLNPVENLPASVKENAPKEIIKDFNDFEDTSYTIKSTDDSKFKGNIYLLVDRKIYSSSESFAMFCKENKFATLVGETTGGDGGCIDPVLFNLKNSGLIVRMASCMYLNKNGICDEEFKTIPEFKVKDCKRTADFKDDNCIRKALELENINY	not soluble
LKMTKVMVSEAGASVYSASELAAKEFPDLDVSIRGAVSIARRLQDPLAELVKIDPKSIGVGQYQHDVSQLKLARGLDAVVEDCVNAVGVDVNTASVALLARISGLNTTLAQNIVAHRDENGAFKTRAALKKVSRLGEKTFEQAAGFLRVMTGDNPLDSSAVHPEAYPLVQRIAAETDRDIRSLIGDASFLKRLDPKKFTDETF	not soluble
LPELSLEELIRMHDHICFLKSLGYTDYQKHLKKSKVLIVGLGKLGANIAYNLCNVGVGSVILFDRTFISPTEISDIYTKDAIGMKKADYLRKKLTSIFPEIEVQNLPDTINISNYLNDSDFDIIIVNSEHFNIKLLSELNDLLYKISTPYMYAWIEGSRGYIGPLIYPPDTSCFNCYLTWRFFGTFMEDKIKAINNYGSSGYIFPLDKIIGALTVLEVCKAIGSLGTPLFNKIILVEVLPTLTIRYIPILKDPKCNVCEG	not soluble
LPVTDNHIHVDDKHGYGAEKVAKTFYNAGGKVMIVLNKPTFDGNLTASMDILVRDVEIINKNTPVKAFGLVGVHPAELTYLMKFMSLEEAKQRIVDALNYAKKLVEEYDFIVGIGEVGRPHYPVSEDVWKASNEILKYCMELAKDIGCAIQIHAESSTEEQFKEFSEMAKEVGLNPEKVVKHHCGNMVLEGERYGIFPSILASRVNEDVVKKSLRFVMETDYIDDLKRPGVALGIKTVPRVTRRLIEKGVLDEEGVYKIHKENIERIYDM	not soluble
LPYPIPIALTDALDRSVSAELVAVLVAVTQGEPRVLTTEDARALPAGPFELAHRSLQAGLRAWVETQTHHPLGYVEQLYTFADSDRSNEAGARVISVSYLGLTREAGATGVAQVGWQHWYRYFPWEDWRAGRPAIIADEIAPRLLAWAGAGADAAARAQRRQRVALTFGLDGAGWNEDMVLQRYELLFEAGLVPESRHPDASGLPVAGQSMRHDHRRILATGIAR	not soluble
LQASCSDDQEHRLGSLDFYTGVFALEKSRIAEISNRATLELQKMATSGEPMWLRSVETGREILNYDEYLKEFPQAQASSFPGRKTIEASRDAGIVFMDAHKLAQSFMDVGQWKETFACLISKAATVDVIRQGEGPSRIDGAIQLMFGEMQLLTPVVPTREVYFVRSCRQLSPEKWAIVDVSVSVEDSNTEKEASLLKCRKLPSGCIIEDTSNGHSKVTWVEHLDVSASTVQPLFRSLVNTGLAFGARHWVATLQLHCERLVFFMATNVPTKDSLGVTTLAGRKSVLKMAQRMTQSFYRAIAASSYHQWTKITTKTGQDMRVSSRKNV	soluble
LRKQVELLFNTRYAKAIGISEPVKVPYSKFLMHPEELFVVGLPEGISLRRPNCFGIAKLRKILEASNSIQFVIKRPELLTEGVKEP	soluble
LSDDRYFIFFNQPKTPEESIQLLGAQAGDTESFRVTLDRIPPQIQKLSFTATLDGAGQMSQVAPGYLRIVAGGEEVARYSFTGSEFSTERAVMLGDFYLKDVWRFAAVGQGFDGGLDALLKNFGGEVAEEEPAVPAQTQSGAAPSFAPPAFGAPAAPAPAPAPAPQPAQGFTPPPGPTPPPAPAPAPSVHAAPTIVGPLHTPPGGTVPPPGPAPYAQ	not soluble
LSECKTGNGKNYRGTMSKTKNGITCQKWSSTSPHRPRFSPATHPSEGLEENYCRNPDNDPQGPWCYTTDPEKRYDYCDILECEEECMH	soluble
LSFSSAVKNELCRVETDRSSSLFELAAAARISGLIKVVNANEINLRLVTENAAFARRIFSQIKDLYGINAEISIRRSPKLKKNIVYIIVLTSSKGLMRILEDINIKVSEKVEYIPYARCMRKKEYRKAYLRGAFLASGSMSDPEKTYHLEITCHNMALATEVSDLMDSFKLHSKVTKRKGNYVVYLKEGENIVDFLNIIGAHSALLELENIRILKEMRNNVNRIVNCETANLQKTVDASVRQVENINYIKEHLGFDKLPENLREIAKMRLAYSDATLKELGEMLNPPLGKSGVNHRLRKLDKIAESLRNMKGEL	soluble
LSSPQNILVCVTQQITCERLILKAAELRNELKGELFVIHVAKNEWNFLDNIKEGEALEYLFKISKSVGANLSVLKSDDIVQTIVNFAKENKITHIVMGESPNDHKENNFYNELKRLLSNVEILVIPQAGI	not soluble
LTCESVRSTDSPHFAMLDALYARAFPCHEQRESEAKRQALSHPRYALEAWFDEGVFVGLSGCWQFAGYGYIEHLAIDDTLRSRGYGKQLLAQILTRAPLTILEIDPLTTAIAHKRLRFYQSMGFHANPWAHHHPSYHQGIADHELLVLSYPQP	not soluble
LTDDPGSGFTTVWNAVVSELNGDPKVDDGPSSDANLSAPLTPQQRAWLNLVQPLTIVEGFALLSVPSSFVQNEIERHLRAPITDALSRRLGHQIQLGVRIAPPATDEADDTTVPPSENPATTSPDTTTDNDEIDDSAAARGDNQHSWPSYFTERPHNTDSATAGVTSLNRRYTFDTFVIGASNRFAHAAALAIAEAPARAYNPLFIWGESGLGKTHLLHAAGNYAQRLFPGMRVKYVSTEEFTNDFINSLRDDRKVAFKRSYRDVDVLLVDDIQFIEGKEGIQEEFFHTFNTLHNANKQIVISSDRPPKQLATLEDRLRTRFEWGLITDVQPPELETRIAILRKKAQMERLAVPDDVLELIASSIERNIRELEGALIRVTAFASLNKTPIDKALAEIVLRDLIADANTMQISAATIMAATAEYFDTTVEELRGPGKTRALAQSRQIAMYLCRELTDLSLPKIGQAFGRDHTTVMYAQRKILSEMAERREVFDHVKELTTRIRQRSKR	soluble
LVHLSVHNYAIVEHLDLELDRGMSVITGETGAGKSIMLDALGLTLGDRADSGVVRPGADKADILATFDLGDIPEAEAWLKERDLDNDGPCILRRVITAEGRSRSYINGSPCPQGDLKALGELLIDIHSQHEHQSLLKTDTHRRLLDEYAGATDLARQVHLAAQRWRQTRQELERL	not soluble
LYLKRATHRIADGIGVVKASKLMGGSIRERVTGIDVMDNFLEYANQHKERIFLYGAKQEVVEAAAKNIQRQYPGIVISGILHGYTKKKQQEIVEQINKAEPRFVFVALGSPKQEIFLEQTIDHLTANVFLDVGGTFDVLAGSVKRAPEFYINHNLEWLYRCLTMKRYDRLMQIPKYIYLTIKYRNNKSRGQ	not soluble
MAAAAAGAGSGPWAAQEKQFPPALLSFFIYNPRFGPREGQEENKILFYHPNEVEKNEKIRNVGLCEAIVQFTRTFSPSKPAKSLHTQKNRQFFNEPEENFWMVMVVRNPIIEKQSKDGKPVIEYQEEELLDKVYSSVLRQCYSMYKLFNGTFLKAMEDGGVKLLKERLEKFFHRYLQTLHLQSCDLLDIFGGISFFPLDKMTYLKIQSFINRMEESLNIVKYTAFLYNDQLIWSGLEQDDMRILYKYLTTSLFPRHIEPELAGRDSPIRAEMPGNLQHYGRFLTGPLNLNDPDAKCRFPKIFVNTDDTYEELHLIVYKAMSAAVCFMIDASVHPTLDFCRRLDSIVGPQLTVLASDICEQFNINKRMSGSEKEPQFKFIYFNHMNLAEKSTVHMRKTPSVSLTSVHPDLMKILGDINSDFTRVDEDEEIIVKAMSDYWVVGKKSDRRELYVILNQKNANLIEVNEEVKKLCATQFNNIFFLD	soluble
MAAASVKGFFQRTGISIKEYFKRMGNDYATVARETVQGCKDRPVKAGVVFSGLGFLTYAYQTNPTELEMYDYLCERRQKLVLVPNSEHNPATTKELTARDFLISQNRLHYYNLWFFSLLVASDYNDKLRIYSSQDSNLKDWPWTELWRNIVDIGALGRWHRMETAFVDYDVNTDEIDLLPDGDKN	not soluble
MAAATGGLTPEQIIAVDGAHLWHPYSSIGREAVSPVVAVAAHGAWLTLIRDGQPIEVLDAMSSWWTAIHGHGHPALDQALTTQLRVMNHVMFGGLTHEPAARLAKLLVDITPAGLDTVFFSDSGSVSVEVAAKMALQYWRGRGLPGKRRLMTWRGGYHGDTFLAMSICDPHGGMHSLWTDVLAAQVFAPQVPRDYDPAYSAAFEAQLAQHAGELAAVVVEPVVQGAGGMRFHDPRYLHDLRDICRRYEVLLIFDEIATGFGRTGALFAADHAGVSPDIMCVGKALTGGYLSLAATLCTADVAHTISAGAAGALMRGPTFMANPLACAVSVASVELLLGQDWRTRITELAAGLTAGLDTARALPAVTDVRVCGAIGVIECDRPVDLAVATPAALDRGVWLRPFRNLVYAMPPYICTPAEITQITSAMVEVARLVGSLP	soluble
